Source: US20230091175A1 (SYSMEX, published 2023)
Substitutions are numbered along the chain they refer to.

T1: interleukin 8 (CXCL8) (100-175: Shenandoah Biotechnology, Inc.) (UniProt P10145 28-99)
T1 construct: the antibodies tested are mouse anti-human IL-8 antibodies; also called IL-8
T1 sequence (looked up): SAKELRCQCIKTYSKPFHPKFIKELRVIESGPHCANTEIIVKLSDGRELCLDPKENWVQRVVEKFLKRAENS

T2: animal free recombinant human IL-4 (AF-200-04: Peprotech, Inc.) (human, UniProt P05112 25-153)
T2 construct: Bought reagent
T2 sequence (looked up): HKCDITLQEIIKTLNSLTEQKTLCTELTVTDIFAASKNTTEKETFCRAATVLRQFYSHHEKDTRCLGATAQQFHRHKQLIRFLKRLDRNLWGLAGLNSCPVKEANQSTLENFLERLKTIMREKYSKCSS

B1: mouse anti-human IL-8 antibody (clone 146-1), original (unmodified) (Fab, V domains shown, not shown: a dimerising Fc or GST)
VH: EVQLVESGGGLVKPGGSLKLSCAASGFTFSSYAMSWVRQTPEKRLEWVATISNGGSYTYYPDSLKGRFTISRDNAKNTLYLQMSSLRSEDTAIYYCARGITGGVYFDYWGQGTTLTVSS
VL: DIQMTQSPASLSASVGETVTITCRASENIYSYLAWYQQKQGKSPHLLVYDAETLAEGVPSRFSGSGSGTQFSLKINSLQPEDFGSYYCQHHYGTPWTFGGGTKLEIKR
notes: Fab; the light entry holds only the variable domain; a His tag is implied by Ni-NTA purification but not described; also called Anti-IL-8 antibody (clone 146-1)
B2: R3 variant of anti-IL-8 antibody (clone 146-1) (Fab, V domains shown, not shown: a dimerising Fc or GST)
VH: B1 VH
VL: B1 VL with S63R, S65R, S67R
notes: Light chain positions 63, 65, 67 (Chothia) changed to Arg; Fab
B3: R4 variant of anti-IL-8 antibody (clone 146-1) (Fab, V domains shown, not shown: a dimerising Fc or GST)
VH: B1 VH
VL: B1 VL with S63R, S65R, S67R, Q70R
notes: Light chain positions 63, 65, 67, 70 (Chothia) changed to Arg; Fab
B4: R5 variant of anti-IL-8 antibody (clone 146-1) (Fab, V domains shown, not shown: a dimerising Fc or GST)
VH: B1 VH
VL: B1 VL with S63R, S65R, S67R, Q70R, S72R
notes: Light chain positions 63, 65, 67, 70, 72 (Chothia) changed to Arg; Fab
B5: mouse anti-human IL-8 antibody (clone 166-1), original (unmodified) (Fab, V domains shown, not shown: a dimerising Fc or GST)
VH: EVKLVESGGGLVKPGGSLKLSCAASGFTFNNYAMSWVRQTPEKRLEWVASISSGGNTYYPDSVKGRFTLSRDNARNILYLQMSRLRSEDTAMYYCARDKLRLPNWYFDVWGAGTTVTVSS
VL: DIVLTQSPPSLAVSLGQRATISCKASQSVDYDGDSYMNWYQQKPGQPPKVLIYGASNLESGIPARFSGSGSGTDFTLNIYPVEEEDAATYYCQQSNEDPPTFGGGTKLEIKR
notes: Fab; the light entry holds only the variable domain; a His tag is implied by Ni-NTA purification but not described; also called Anti-IL-8 antibody (clone 166-1)
B6: R5 variant of anti-IL-8 antibody (clone 166-1) (Fab, V domains shown, not shown: a dimerising Fc or GST)
VH: B5 VH
VL: B5 VL with S67R, S69R, S71R, D74R, T76R
notes: as for B4
B7: R3 variant of anti-IL-8 antibody (clone 166-1) (Fab, V domains shown, not shown: a dimerising Fc or GST)
VH: B5 VH
VL: B5 VL with S67R, S69R, S71R
notes: as for B2
B8: R4 variant of anti-IL-8 antibody (clone 166-1) (Fab, V domains shown, not shown: a dimerising Fc or GST)
VH: B5 VH
VL: B5 VL with S67R, S69R, S71R, D74R
notes: as for B3
B9: mouse anti-human IL-6 antibody (clone 44-15), original (unmodified) (Fab, V domains shown, not shown: a dimerising Fc or GST)
VH: DVQLQESGPGLVKPSQTVSLTCTVTGISITTGNYRWSWIRQFPGNKLEWIGYIYYSGAITYNPSLTSRTTITRDTSMNQFFLEMISLTAEDTATYYCARDRYDYAVDFWGQGTSVTVSS
VL: B1 VL with A25S, Y32F, A34T, Y36F, K39R, D50Y, E52N, K74Q, S85T, K103R
notes: Fab; the light entry holds only the variable domain; a His tag is implied by Ni-NTA purification but not described; also called Anti-IL-6 antibody (clone 44-15)
B10: R5 variant of anti-IL-6 antibody (clone 44-15) (Fab, V domains shown, not shown: a dimerising Fc or GST)
VH: B9 VH
VL: DIQMTQSPASLSASVGETVTITCRSSENIYSFLTWFQQRQGKSPHLLVYYANTLAEGVPSRFRGRGRGTRFRLQINSLQPEDFGTYYCQHHYGTPWTFGGGTRLEIKR
notes: as for B4
B11: R3 variant of anti-IL-6 antibody (clone 44-15) (Fab, V domains shown, not shown: a dimerising Fc or GST)
VH: B9 VH
VL: B10 VL with R70Q, R72S
notes: as for B2
B12: R4 variant of anti-IL-6 antibody (clone 44-15) (Fab, V domains shown, not shown: a dimerising Fc or GST)
VH: B9 VH
VL: B10 VL with R72S
notes: as for B3
B13: mouse anti-human IL-6 antibody (clone 58-1), original (unmodified) (Fab, V domains shown, not shown: a dimerising Fc or GST)
VH: EVQLQQSGPELVKPGASVKMSCKASGYTFTSYVMHWVKQKPGQGLEWIGYINPYNDGTKYNEKFKGKATLTSDKSSSTAYMELSSLTSEDSAVYYCAREGYGNLERDCWGQGTSVTVSS
VL: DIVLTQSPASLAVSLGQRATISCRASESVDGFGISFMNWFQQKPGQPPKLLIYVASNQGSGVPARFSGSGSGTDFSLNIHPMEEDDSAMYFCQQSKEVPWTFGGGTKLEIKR
notes: The heavy entry is VH-CH1 with part of the hinge; the light entry holds only the variable domain; Purified on Ni-NTA, so a His tag is implied but not described; also called Anti-IL-6 antibody (clone 58-1)
B14: R5 variant of anti-IL-6 antibody (clone 58-1) (Fab, V domains shown, not shown: a dimerising Fc or GST)
VH: B13 VH
VL: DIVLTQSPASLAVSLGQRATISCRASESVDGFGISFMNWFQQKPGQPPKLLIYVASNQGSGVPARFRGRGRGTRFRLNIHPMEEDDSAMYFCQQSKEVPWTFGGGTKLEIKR
notes: as for B4
B15: R4 variant of anti-IL-6 antibody (clone 58-1) (Fab, V domains shown, not shown: a dimerising Fc or GST)
VH: B13 VH
VL: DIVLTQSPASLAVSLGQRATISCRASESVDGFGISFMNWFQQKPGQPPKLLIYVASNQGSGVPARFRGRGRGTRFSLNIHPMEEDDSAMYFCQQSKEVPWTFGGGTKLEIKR
notes: as for B3
B16: R3 variant of anti-IL-6 antibody (clone 58-1) (Fab, V domains shown, not shown: a dimerising Fc or GST)
VH: B13 VH
VL: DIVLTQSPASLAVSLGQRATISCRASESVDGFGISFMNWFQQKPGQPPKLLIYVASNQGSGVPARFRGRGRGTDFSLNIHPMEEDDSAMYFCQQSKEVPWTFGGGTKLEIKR
notes: Light chain positions 63, 65, 67 (Chothia) changed to Arg; Fab; a His tag is implied by Ni-NTA purification but not described
B17: human anti-IL-4 antibody (PDB: 5FHX), original (unmodified) (antibody, human IgG1, kappa, V domains shown)
VH: AVQLQQSGPELVKPGASVKISCKASGYSFTSYWIHWIKQRPGQGLEWIGMIDPSDGETRLNQRFQGRATLTVDESTSTAYMQLRSPTSEDSAVYYCTRLKEYGNYDSFYFDVWGAGTLVTVSS
VL: DIQMTQSPASLSVSVGDTITLTCHASQNIDVWLSWFQQKPGNIPKLLIYKASNLHTGVPSRFSGSGSGTGFTLTISSLQPEDIATYYCQQAHSYPFTFGGGTKLEIKR
notes: IgG with full heavy and light chains; also called original anti-IL-4 antibody
B18: R4 variant of anti-IL-4 antibody (antibody, human IgG1, kappa, V domains shown)
VH: B17 VH
VL: B17 VL with S63R, S65R, S67R, G70R
notes: IgG; light chain positions 63, 65, 67, 70 (Chothia) changed to Arg
B19: R3 variant of anti-IL-4 antibody (antibody, human IgG1, kappa, V domains shown)
VH: B17 VH
VL: B17 VL with S63R, S65R, S67R
notes: IgG; light chain positions 63, 65, 67 (Chothia) changed to Arg

biological target: T1, interleukin 8 (CXCL8) (100-175: …); test: SPR (Biacore 8K), antigen immobilized on CM4 chip, antibody as analyte
Description: (§1) (4.1) For anti-IL-6 antibody, anti-IL-8 antibody, and anti-IL-12 antibody Affinity of the original antibodies and variants was measured using Biacore (registered trademark) 8K (Cytiva). As antigens, human IL6 protein, His and GST tags (active) (GTX00094-pro: GeneTex, Inc.), interleukin 8 (CXCL8) (100-175: Shenandoah Biotechnology, Inc.), and human IL 12 protein (Recombinant His, C-terminus) (aa23-328) (LS-G134297-50: LSBio, Inc.) were used. The antigen was immobilized to a sensor chip for Biacore (registered trademark) Series S Sensor Chip CM4 (GE Healthcare). Each antibody solution obtained in the above (3.2) was diluted to prepare an antibody solution for measurement. The concentration of each antibody in the antibody solution for measurement was as follows. In the solutions of the anti-IL-6 antibody (58-1) and its R3, R4 and R5 variants, the concentration was 100 nM, 50 nM, 25 nM, 12.5 nM and 6.25 nM. In the solution of the anti-IL-6 antibody (44-15), the concentration was 100 nM, 50 nM, 25 nM, 12.5 nM and 6.25 nM, and in the solutions of its R3, R4 and R5 variants, the concentration was 50 nM, 25 nM, 12.5 nM, 6.25 nM and 3.13 nM. In the solutions of the anti-IL-8 antibody (166-1) and its R3, R4 and R5 variants, the concentration was 100 nM, 50 nM, 25 nM, 12.5 nM and 6.25 nM. In the anti-IL-8 antibody (146-1) solution, the concentration was 100 nM, 50 nM, 25 nM, 12.5 nM and 6.25 nM, in the solution of its R3 variant, the concentration was 50 nM, 25 nM, 12.5 nM, 6.25 nM and 3.13 nM, and in the solutions of its R4 and R5 variants, the concentration was 25 nM, 12.5 nM, 6.25 nM, 3.13 nM and 1.56 nM. In the anti-IL-12 antibody solution, the concentration was 50 nM, 25 nM, 12.5 nM, 6.25 nM and 3.13 nM, in the solution of its R3 variant, the concentration was 25 nM, 12.5 nM, 6.25 nM, 3.13 nM and 1.56 nM, and in the solution of its R4 variant, the concentration was 12.5 nM, 6.25 nM, 3.13 nM, 1.56 nM and 0.78 nM.
(§2) The antibody solutions for measurement at each concentration were delivered to Biacore (registered trademark) 8K (Cytiva) (association time of 120 seconds and dissociation time of 1200 seconds). Measurement data was analyzed using Biacore (registered trademark) Evaluation software, and the data on the affinity of each antibody for an antigen was obtained.

| Kd [nM] | Binder |
| --- | --- |
| 15.3 | B1 |
| 5.8 | B2 |
| 3.14 | B3 |
| 2.4 | B4 |
| 1.64 | B5 |
| 0.389 | B6 |
| 1.17 | B7 |
| 0.595 | B8 |

biological target: T3, human IL6 protein, His and GST tags (active) (GTX00094-pro: GeneTex, Inc.) (human, UniProt P05231 30-212, limits assumed); test: as above
T3 construct: Bought reagent; not shown: His and GST tags
Description: as §1, §2

| Kd [nM] | Binder |
| --- | --- |
| 20.4 | B9 |
| 4.4 | B10 |
| 7.16 | B11 |
| 8.38 | B12 |
| 0.198 | B13 |
| 0.0279 | B14 |
| 0.0472 | B15 |
| 0.0812 | B16 |

biological target: T1, interleukin 8 (CXCL8) (100-175: …); test: SPR (Biacore 8K); affinity ratio with the original antibody as 1.0
Description: as §1, §2

| KD ratio | Binder |
| --- | --- |
| 1 | B1 |
| 2.6 | B2 |
| 4.9 | B3 |
| 6.4 | B4 |
| 1 | B5 |
| 4.2 | B6 |
| 1.4 | B7 |
| 2.8 | B8 |

biological target: T3, human IL6 protein, His and GST tags …; test: as above
Description: as §1, §2

| KD ratio | Binder |
| --- | --- |
| 1 | B9 |
| 4.6 | B10 |
| 2.9 | B11 |
| 2.4 | B12 |
| 1 | B13 |
| 7.1 | B14 |
| 4.2 | B15 |
| 2.4 | B16 |

biological target: T2, animal free recombinant human IL-4 …; test: ELISA, IL-4 coated on plate, HRP anti-human IgG detection
Description: (§3) Affinity of the original anti-IL-4 antibody and variants was measured by ELISA method. As an antigen, an animal free recombinant human IL-4 (AF-200-04: Peprotech, Inc.) was used. The IL-4 was diluted with 1% BSA/TBS to prepare an antigen solution (5 μg/mL). Each of the original anti-IL-4 antibody, R3 variant and R4 variant was diluted with 1% BSA/TBS to prepare an antibody solution (1000 ng/mL, 250 ng/mL, 62.5 ng/mL, 15.63 ng/mL, 3.91 ng/mL, 0.98 ng/mL, and 0.244 ng/mL). As a detection antibody, an HRP-labeled anti-human IgG antibody (Bethyl Laboratories) was used. The detection antibody was diluted with 1% BSA/TBS to prepare a detection antibody solution (100 ng/mL).
(§4) The antigen solution was dispensed at 50 μL per well into a 96 well plate for ELISA (Thermo Fisher Scientific), and the plate was incubated at 4° C. overnight. The plate was washed 3 times with 200 μL of a washing solution per well (0.05% Tween 20-containing TBS). A blocking solution (1% BSA-containing TBS) was dispensed at 250 μL per well, and the plate was incubated at 4° C. overnight. The blocking solution was removed, the […] solution was dispensed at 50 μL of antibody solution per well into the plate, and the plate was incubated at room temperature for 15 minutes. After washing the plate 3 times with a washing solution, the detection antibody solution was dispensed at 50 μL per well, and the plate was incubated at room temperature for 1 hour. After washing the plate 3 times with a washing solution, a substrate solution (Seracare) was dispensed at 100 μL per well into the plate, and the absorbance at 450 nm was measured with a plate reader SpectraMax 190 Microplate Reader (Molecular Devices, LLC.).

| EC50 [µg/mL] | Binder |
| --- | --- |
| 0.304 | B17 |
| 0.176 | B18 |
| 0.18 | B19 |

biological target: T2, animal free recombinant human IL-4 …; test: ELISA; affinity ratio with the original antibody as 1.0
Description: as §3, §4

| EC50 ratio | Binder |
| --- | --- |
| 1 | B17 |
| 1.7 | B18 |
| 1.7 | B19 |
